Reference: patent US20190330665A1

Target: T7 RNA polymerase (UniProt P00573)
Assay: cell-based or functional assay

## catalytically-deactivated variant of T7 lysozyme (LysY) (from UniProt P00806 2-151)
  decrease in basal mNeonGreen expression in exponential phase (PT7:mNeonGreen reporter, PurtA:T7pol biosensor strain): 78%
